In the DeepSol protein solubility set:

Assay: soluble on expression in E. coli; label from the status in PepcDB or PDB records

Soluble on expression in E. coli, not soluble:
MGSDKIHHHHHHMTSGLHISTSFDSGAIEVDALDHADDIRLRIRADSHADFRQWFHFRLQGAAGQACRLQFLNAGDCTYPDGWRDYRAVASYDRANWFRVPTRFDGQVLTVEFTPQHDSVWFAYFEPYPEERHLSLLATCQRSPLAKLSHLGSTVDGRDMTRVTVGQPGPGKKTIWMIARQHPGESMAEWFCEGVLQRLTGTGMWAHDPVARKLLESAVFHIVPNMNPDGSARGNLRTNAAGANLNREWMTPSPETSPEVWHVRRAIEATGCDLFFDIHGDEGLPYNFVAGSEMLPSFSEKQREEQTRFIEAFKRVTPDFQDVHGYAASKYNADALKLASKYVGHTFGCLSLTLEMPFKDNADLPDATVGWNGARSALLGTAMLEAILNFLG
MGSDKIHHHHHHMTTASTVYHYCGAESFFSIVRNGRLWVSDARKTNDRRELEWFKDLALKHIAKSAATGDKMLSDLHLALKVRFELLEDVSDYYVCCFSEKKDSVPQWVAYADRGTGFAIGFDVNALRKKIGAALLSPSYAPVPFGVGANGWGFGPVAYAEEGVANAQIDDLMSTIVSAPFVGEDVTDSARDHIDRVCAFCKHPDFQTEHEWRIVCNTSFLKKNAGLTGTDMLPDTKWRKGGYGLTPYRETVDVLDCVKEVIVGPGNADRDSIEYVKQFLRFSGVKAEVFLSVSPYR
MGSDKIHHHHHHMTTATQSSAPGVNVDQAEVEKFSALAARWWDPESEFKPLHAINPLRLGWIQETAGSLSGKRVLDMGCGGGILSESMAVAGAQVTGIDLAEKSLKIARLHGLESGVKVDYRAVPVEELAAEQPGQYDVVTCMEMLEHVPDPASVVRACAALAKPGGWVFFSTLNRNPKSFLFAIVGAEYVLRLLPRGTHSYDSFIKPSELATSARQAGLEPTGMRGMEYNPITQVYSLSANTSVNYLMSTRK
MGSDKIHHHHHHMTTFYSLKVARVEPETRDAVTITFAIPQALQAEYCFRPGQHLTLKARLGGEELRRCYSICRSRTPGEISVAVKAIDGGRFSRYAQQDIQQGMELEVMVPQGHFGYQPQAERQGEYLAIAAGSGITPMMAIISATLATEPQSRFTLIYGNRSSHSMMFRQALADLKDRYPQRLQVIHLFSQESMDSDLLQGRIDGDKLRQLADHLLDFSRFDEAFICGPAAMMDEAEATLRELGVAEKSIHLERFNTPGGNVKRVAGVQAEGRTVTIRQDGRDRLIALSAEDDSILDAALRQGADLPFACKGGVCATCKCKVLRGEVAMAANYSLEADELAAGYVLSCQSLPTSGDVVVDFDARGMA
MGSDKIHHHHHHMTTPLLEINDLVVSYQTAKGLVHAVNNVSLEVHPGQITAIVGESGSGKSTTAQAVIGLLADNAEVDSGRISFNGRSLVGLNAREWKNVRGTKIGLIPQDPNNSLNPVKTIGASVGEGLAIHKRGTAAERKKKVIELLERVGIDNPEVRYDQYPHELSGGMKQRALIAAAIALEPELIIADEPTSALDVTVQKIILDLLEDMQRELGMGILFITHDLAVAGDRADRIVVMQKGEVRESGYAASVLTDPQHEYSKKLLADAPSLTIGEIPTRVPAVDPEVAQAKGPLLVVDKFRKEHQRGKEGAFVAANDISFEVLPGTTHAIVGESGSGKTTLGRAIAMFNTPTSGSISVSGKDITNLSKAQQRELRQQIQLVYQNPYSSLDPRQTIGSTIAEPLRNFTKVSKQEADEKVAHYLELVALDPALATRRPRELSGGQRQRVAIARAMILEPELVVFDEAVSALDVTVQAQILRLLDDLQRELGLTYVFISHDLAVVREISDTVSVMSRGNQVELGKTAEVFNNPQTDFTRRLIDAIPGSRYRGGELNLGL
MGSDKIHHHHHHMTTSTPSASPLALSPSRANDYQQCPLLYRFRAIDKLPEPKTVAQVKGTLVHAVLEEMHGWPRNERLFPAAVKRLKPHWSLMCSKDTELVSLVPEEDTYDFLVECRSLLRGYFEMENPQGFDALACEMYVNATLPNGVPIRGFIDRVDKAPTGEIRVVDYKTGKKPIPRFSQQAQFQMRFYALVYWRIYGRIPDQLRLMYLKVADSMFLTPSREELEYFERDIQELWEKIVTDGETGQFRPKTSKLCGWCSFQNLCPAFDGTPPAYPGWPGIADAPPCSTVDASKGLTG
MGSDKIHHHHHHMTTSYTITCSRPTNYGAVLQTYGLNTALRKMGVDAKVLDYNPKYYYTSTQPLPIRMVRAVVRFPDLTKGRKVFGKFLEDYVPMSAKTYRTLAEIEADVPQADVYICGSDQIWNCKNKLNGKDDAFFLSFAPAKARKVAYAASIAMPEIPNNQKTRYHRLISDFDAVSVREPSSVPMLEDLGIDNVQSVIDPVFLLERNDWDVIADASDFVPTEDYVLVYGYNRQKDVYAYARRLAKKLGVKVYTIGTAIEDYTLDQDRYFWNASPNTFVNLVRNAKAVVTNSFHGTVFSIVYNKPFHFFTVKQTTNSRMLDLLDSLTLKDRHVVGEELLSNDIDYDRPNQLLAEAKKRSLGFLQTNVASYVSENKPMKG
MGSDKIHHHHHHMTTTKKTGERLIKKYPNRRLYDTETSTYITLTDVKQLVLEQEDFKVIDAKSSEDLTRSILLQIILEEESGGVPMFSSSMLSQIIRFYGHAMQGMMGTYLEKNIQAFIDIQSKLADQSKNLYENNAMNPEVWSQFMNMQAPMMQGMMTSYIEQSKNMFVQMQEQMQNQAKTMFSSFPFKPATPPGSEPEKK
MGSDKIHHHHHHMTTVYSGLISCYNAYPKKHSYRVRRSDKGWHDGAVWYLEKAKIMLRNDNLKIKGLTPEQEENVRAIHAMNPAHILVECATNKSWGGKKELSDLDLDSYKKAADTLYEEGFGLCIRYNRQTSIKEFIQQIVDHIGAAQYDNVETGKQTIKLIRRDYKPEDLPVFNYDNGILSVRDDDSGATDKQPNQVIVKYREPVSNRDDQAIANNIASVRMHGVISKTVEYKGVPTFDLAARLARDLELVASGLTRLKIVFDMRASELKPGDVVRVNLPDRDIVDVVFRVGKLENGNDGEIIATCIQDVFGLPAANYSTQKGESLYIPPDYTANPIQQARLIEVPYHVLPLVLSDAERAFVKPTDCFVWALGAQPTALSVGYDMLVDVGGGYTQTATGSFTPFVRLLEPVSPYQTNIKIKLEGDYAAVAGALALIVDDEIIKIDAVDFKTGTMTVGRGCADTVPQAHKADAVAWCYLLAAGTDESKYTVNERLNVKLLTRTAQQTLDESKAEVLTLTTQQRQARPFCVELGVPRPRRTSGQTDSALGRQHAPRRWRQL
MGSDKIHHHHHHMTTYSPSQENYRELAHLLARFTSLTQIKTIFYDFTGILLKDDFVYINHSAIEDNLAQLTFSDYAVFPVSRNIQMWGAILCESVNVSKKRLFLSRSYLENLMTQIFDEDTLGKVSVWEPLTSDQVGQINNLHALFHPTGDTDPLQAVLAPNAVIAGHTIDNDEAFRSISLAIDYIQKNIQRPISLNEVAQRAYLSPSYLSRLFKKYLHVNFIEYVNNQKIALAQEKLSLTLTPINQISNQIGFTQTSYFTKIFKKKTGITPSEFRQRNHTIQKIYTIPRELNWDTNDSVIDVTKNYFKSHHITYHTDSEEGATYVNSIGELNDAKGNRGWIYTVDGQQPTQSADEIATHDKSVIQWVYTDYSN
MGSDKIHHHHHHMTYDYTEPTLSAKGQRMRDILADYIALISHRLPDDVTAKLEELSKIEVDPLQKLVYDTMMENQLLANKLKRPSCQDTGALQFFIKCGAQFPLLGELNQILKDAVYRGTKKAPLRHNAVQTFDEYNTGMNIGDGIPSIFLQVDGNGTDISMYVYMAGGGCTLPGAAKVLMPGEGYEGVVRFVMDRMTSYGINACPPLLVGVGVATSVETAALNSKLALMRRVDSENPNANAAKLEHLLEDGINHIGLGPQGFGGQKSVMGVNVENTARHPSTIGVAVSTGCWSHRRGLINFDADLNYDLPLNKGVELS
MGSDKIHHHHHHMTYPKYTQQALSRYNLPRLKRIATELGVTPTGDKRAADTWVNAIIIHQSTKLQKVDNQALAQAELDSYIADQAQAIAPEPLTIVEISFDHHEYYADDKLVASISHDDSHLTQRWVVMINDKEIFRANTLMHCDRFICNHYKDGSLPVQEKEATPSTIENQIMAHIFNECQNYGFEILDDGIYNNGVKLGQVGCTDGNWWVKRRYSVQQQYSNSVLDAVRSLSMLDVSNGGKSIFDEYILDQPLEQLTGDRLQRLLERAELVTA
MGSDKIHHHHHHMTYPVVLVNVSRNTNAISFPMGLSVVANALLHHDITPQIIDLIPVMPDQRIDYFLRTMPKEPAIYGFSMMIGNFHLDHAEHYARLIKEHSPDSIVVYGGSLPSSVPELLVENCECDFVIHGEGEVVFPAFVKALREGESFPEGPGIFYKGADGQVVGTKAKRMRRLDHLSRQNYSLFDMDFYSGYFKEVGLSWEIMASRGCKAHCSFCYKFMGDGIGLREVGEVLDEIQYIMENYGITKFYFVDENFMQIKKYFYSFLEEKKNRGLNFTFIASSRIDEIDEERISIAKEHGLTALTTGVESVNQATLNAIDKRIDIEDAERAVKLLRQYGIRPHVNLIIGFEWESEDDYKAMLEFIERNDLRGTVKLSYLTPLPATRLYEDAKSRNKLGKPEFEYVRTLGNLYWELMVNMTNMPDELLKHYYALISDVGKETRALPVTPAYRQNLNDDLVMYKTVAAPSPPPAHAAWSLP
MGSDKIHHHHHHMTYTPFFIHGEDRRSRWLITCDHATNTVPPEICGGDLGLAREDMERHIAYDVGAYEVSRLLGEMLAAPVIAANFSRLVIDPNRGEDDPTLLMKLYDGSIIPGNRHADAAERERRLNMCYRPYHDALARLAARPGVVLVSMHSFTRQLRGRAPRPWQIGVLHTADQRFSDPLIARLRGEADLCVGVNQPYTGVLPGDAIDTHCTAFGRPNALIELRNDLIGDPAGQHAWAERLAPLLQDALADSGL
MGSDKIHHHHHHMVAQLETPSANSSLSLPYPIEGLVQVFTSSHRNFFTSVMGQALRIAGQGTPVLIVQFLKGGIKQGQDRPIQLGQNLDWIRCDLPRCIDTPHLDESENQALQKLWLHTQQVVDEDKYSLVVLDELSLAIHFGLIPESDVLAFLAKRSPHVDIIFTGTEMPQSILDVADQITEIRRSHCP
MGSDKIHHHHHHMVIAVRRILIREEYCMGCKLCEINCVAAQVGTGNLIKVYRYVPELPEPNVIVEEHDYVTFALQCRNCDDPSCLKACMTGAMHRDPKTGAIRVNQEKCVGCWMCVMACPFGVIRRNTKEKKVASKCDLCADRGTPGCVEGCPNEALVLVEVRE
MGSDKIHHHHHHMVKLLLICLATIVMISCGSEQEKLTVYIPDTCTDTLQYEIYLPEEEGLNIFYDLCVTDSFCAFLDTRNDTLLKIFTATIPPALVGLGMKGEGPDDFLFPFFEKSIGREGKGKLSFIELNSWNKKIVAIHSAASPAPVAVSVVEAQQLPEMPVVRDYNETDSCVYGIDVDMQHGLFFIYDKHTARVKTVDYHRDIRSGYPEGHLSYLYESCLMVNQDAKAACMGLLNLNSLCFYDLKGNLMKEIVIGKELKSPEYDPEFLDFPNAPKYFISLCGTPNYLYALYNGFPGTSGKSKIMVFTWQGAPVAIYQTDVKLERIAVAPSGRYVLGLNITEEGGSDVLKFEL
